Experimental data as given in the RNAGym collection of RNA variant scans (doi:10.7554/elife.80360).

B1: CPEB3 Ribozyme (parent)
chain: GGGGGCCACAGCAGAAGCGUUCACGUCGCGGCCCCUGUCAGAUUCUGGUGAAUCUGCGAAUUCUGCUGU
B2: Hammerhead Ribozyme (parent)
chain: ACCGGAUGUGCUUUCCGGUCUGAUGAGUCCGUGAGGACGAAACAG

Variants of: B1
Test: self-cleavage, relative activity (ratio to wild type); higher = more cleavage; co-transcriptional

Row | Variant | self-cleavage
1 | U61C U64G | 0.474
2 | C66U U69C | 1.06
3 | C66U U69A | 1.03
4 | C63U U64G | 0.777
5 | U64G G68U | 0.923
6 | U64G G68C | 0.799
7 | U64G G68A | 1
8 | G65A U67C | 0.844
9 | G65A U67G | 0.887
10 | G65A U67A | 0.793
11 | U61G G68A | 0.988
12 | U61G G68U | 0.826
13 | U61G G68C | 0.867
14 | C66G | 0.937
15 | C66A | 0.911
16 | C66U | 0.99
17 | U61A U69A | 0.958
18 | C63U U67G | 0.985
19 | C63U U67C | 0.968
20 | U62C G68C | 0.806

Row | Variant | self-cleavage
21 | U62C G68U | 0.934
22 | U62C G68A | 1
23 | G65A G68C | 0.945
24 | G65A G68A | 0.941
25 | G65A G68U | 0.813
26 | G68U U69C | 1.1
27 | G68U U69A | 1.01
28 | G68U U69G | 1.02
29 | G65C | 0.758
30 | G65U | 0.877
31 | G65A | 0.954
32 | G68C U69G | 1.11
33 | G68C U69A | 1.06
34 | U64C U67C | 0.764
35 | U64C U67A | 0.864
36 | U62G C63U | 0.661
37 | U62G C63A | 0.856
38 | U62G C63G | 0.334
39 | U61A C63U | 0.721
40 | U62C U69C | 1.03

Row | Variant | self-cleavage
41 | U62C U69A | 1.01
42 | U62C U69G | 0.984
43 | U61G C66A | 0.495
44 | U61G C66G | 0.538
45 | U62C G65C | 0.488
46 | U62G G65C | 0.475
47 | U62G G65A | 0.285
48 | C63U C66A | 0.473
49 | C63U C66U | 0.863
50 | G65A U69G | 0.947
51 | C66U U67G | 1
52 | C66U U67C | 0.956
53 | U61A U64A | 0.54
54 | U62A U69A | 0.942
55 | U62A U69G | 1
56 | G65U U69C | 0.97
57 | G65U U69A | 0.835
58 | U61A G68C | 0.947
59 | U61A G68U | 0.937

Variants of: B2
Test: as above

Row | Variant | self-cleavage
60 | C3G U9G | 0.407
61 | U9A G27C | 0.609
62 | U12G U19C | 0.524
63 | G8C U28C | 1.16
64 | G18U A44C | 0.431
65 | G22A G39A | 0.367
66 | G10C G17A | 0.926
67 | G5C A37U | 0.238
68 | A6G G45A | 0.556
69 | G4U G22A | 0.297
70 | G8A C29A | 0.565
71 | G31U G35A | 0.879
72 | A1G U9C | 1.8
73 | C3G G18A | 0.323
74 | C3G G18C | 0.335
75 | A23G G27A | 0.297
76 | A42C G45A | 0.539
77 | G10A A44G | 1.71
78 | A6G A42C | 0.268
79 | C2A C43U | 0.308
80 | U7C A42C | 0.3
81 | C3U U28A | 0.448

Row | Variant | self-cleavage
82 | U12G C15G | 0.819
83 | U13G G36U | 0.658
84 | C15U U21G | 0.859
85 | U14C G39A | 0.349
86 | A40G A42C | 0.266
87 | G31C G45C | 0.515
88 | U28A U32C | 0.626
89 | G18A U24C | 0.757
90 | A6G A26G | 0.303
91 | G5C A42G | 0.24
92 | C20A A23G | 0.27
93 | G18A G25A | 0.281
94 | U28G G45A | 0.418
95 | G8A G27U | 0.451
96 | A26C A42C | 0.305
97 | C16U U28G | 0.798
98 | A23U C43G | 0.356
99 | G31C A34U | 0.68
100 | G27A G36U | 0.391
101 | G5A A23U | 0.304
102 | C11A C15G | 1.15
103 | G25C A40U | 0.332

Row | Variant | self-cleavage
104 | A6G G25A | 0.263
105 | A23G A42C | 0.31
106 | C3U C29G | 0.594
107 | C20U G39U | 0.335
108 | G18C U28G | 0.44
109 | C11U C29A | 0.329
110 | G5A U9C | 1.37
111 | A23G G39C | 0.33
112 | G8A U12G | 1.25
113 | U7C U19A | 0.397
114 | G5C U24G | 0.499
115 | G27A C43G | 0.415
116 | C30G G33A | 0.715
117 | A6C U21G | 0.415
118 | G25C U28A | 0.338
119 | G36C A42G | 0.272
120 | C15U C43A | 0.413
121 | U14G C16G | 0.476
122 | U13G G39U | 0.299
123 | A23C A41C | 0.313
124 | U13G G17A | 0.876
125 | C15A A34U | 0.879

Row | Variant | self-cleavage
126 | A23U G33U | 0.551
127 | C30G G39A | 0.26
128 | U21C U28G | 0.703
129 | U28G A34G | 0.793
130 | A34C G35U | 0.58
131 | G5U A44G | 0.918
132 | G8U U24C | 0.829
133 | C15A C30A | 0.782
134 | G5C U19A | 0.344
135 | U14A G35U | 0.721
136 | C11G G22C | 0.338
137 | U9A G10C | 1
138 | G4A A40G | 0.379
139 | C2U A41G | 0.389
140 | G22U U32G | 0.299
141 | A23U A42C | 0.331
142 | A23U A42U | 0.337
143 | U14G G22C | 0.301
144 | G4U C11U | 0.319
145 | C30G A37U | 0.358
146 | C3A C20A | 0.348
147 | C3G C30A | 0.353

Row | Variant | self-cleavage
148 | U7G U28C | 1.36
149 | G8A G35C | 0.543
150 | U19G G31U | 0.451
151 | C43G | 0.406
152 | G8C C29A | 0.548
153 | U24C G25A | 0.363
154 | C20U U32C | 0.395
155 | G33A C43U | 0.816
156 | A37U A41U | 0.307
157 | C20G U32C | 0.325
158 | C2G G4A | 0.322
159 | A1C U7C | 0.38
160 | U19G G36A | 0.38
161 | A6C A41C | 0.274
162 | U12A U13C | 1.05
163 | A26G A34G | 0.305
164 | C20U C43G | 0.278
165 | U13C G45C | 0.743
166 | G22C G33U | 0.374
167 | U24G C43G | 0.337
